Assays:
thrombin = thrombin (Homo sapiens, UniProt P00734); test: Inhibition of thrombin-catalyzed conversion of fibrinogen to fibrin, absorbance at 350 nm; format: biochemical; details: for IC50: thrombin concentration of 0.1 nM, fibrinogen 2 μM
Protocol: (§1) Thrombin (0.1 nM) and fibrinogen (2 μM) were incubated with TBCA and Lib of different concentrations separately in buffer systems (total reaction volume of 100 μL) for a certain amount of time (till reaction equilibrium was reached), and the IC50 values of TBCA and Lib were calculated by fitting of the absorbance of the reaction system measured at 350 nm on a microplate reader.
The inhibition of thrombin-catalyzed conversion of fibrinogen to fibrin by TBCA and the random circular nucleic acid (Lib) was compared.
as §1, with “TBCA, M1, M2, M3, M4, M5, D1, D2” for “TBCA”, “D3” for “Lib”

[1] = Incubation in 50% serum at 37° C., electrophoresis, gray values of bands (biostability, half-life); format: in vitro ADME; details: 0.5 μM
Protocol: Incubation of 0.5 μM of TBCA and TBA each (nucleotide sequences thereof are shown in SEQ ID NO:1 and SEQ ID NO:2, respectively) was performed in 50% serum at a temperature of 37° C. Samples were taken for electrophoresis at 0 min, 1 min, 2 min, 5 min, 10 min, 30 min, 60 min (1 h), 120 min (2 h), 240 min (4 h), 480 min (8 h), 720 min (12 h) and 1440 min (24 h), respectively.

D3: Deletion variant of TBCA, SEQ ID NO:10 (DNA ATCTCGACTAGTCATAGGGGGCGCGAACATACGCGGTTGGTGTGGTTGGCTGACAA; DNA, backbone and methylation of C not given here; further chemistry not fully specified)
IC50 (thrombin): 0.13 nM

TBA: Existing thrombin binding aptamer, 5′-GGTTGGTGTGGTTGG-3′, specifically targets α-thrombin [reference compound]
half-life [1]: approximately 2 min
IC50 (thrombin): 1.3 nM

B1: TBCA: Circular DNA aptamer, SEQ ID NO:1, 5′ end and 3′ end connected to form a ring (nucleic acid)
DNA: ATCTCGACTAGTCATAGGGGGCGCGAACATACGCGGTTGGTGTGGTTGGCTGACAATACTCGTTTTTGGTGTCTCGGAT
modifications: DNA, backbone and methylation of C not given here; circular: 5' and 3' ends joined to form a ring
half-life [1]: about 8 hours
half-life ([1]; listed as thrombin binding circular aptamer): up to 8 hours
inhibition effect on thrombin relative to Argatroban (thrombin; thrombin 0.1 nM, ratio of IC50 values, TBCA vs Argatroban): 30 times
inhibition effect on thrombin relative to TBA (thrombin; thrombin 0.1 nM, ratio of IC50 values, TBCA vs TBA): 13 times
IC50 (thrombin): 0.15 nM

B2: M3: Substitution variant of TBCA, SEQ ID NO:5, N is a random nucleotide (nucleic acid)
DNA: ATCTCGACTAGTCATAGGGGGCGCGAACATACGCGGTTGGTGTGGTTGGCTGACAANNNNNNNTTTTGGTGTCTCGGAT
modifications: DNA, backbone, methylation of C and the base at N not given here; circular: 5' and 3' ends joined to form a ring
IC50 (thrombin): 0.18 nM

B3: M2: Substitution variant of TBCA, SEQ ID NO:4, N is a random nucleotide (nucleic acid)
DNA: ATCTCGANNNNNNNTAGGGGGCGCGAACATACGCGGTTGGTGTGGTTGGCTGACAATACTCGTTTTTGGTGTCTCGGAT
modifications: DNA, backbone, methylation of C and the base at N not given here; circular: 5' and 3' ends joined to form a ring
IC50 (thrombin): 0.36 nM

B4: M5: Substitution variant of TBCA, SEQ ID NO:7, N is a random nucleotide (nucleic acid)
DNA: ATCTCGACTAGTCATAGGGGGCGCGAACATACGCGGTTGGTGTGGTTGGCTGACAATACTCGTTTTTGGTNNNNNNNNN
modifications: DNA, backbone, methylation of C and the base at N not given here; circular: 5' and 3' ends joined to form a ring
IC50 (thrombin): 0.11 nM

B5: M1: Substitution variant of TBCA, SEQ ID NO:3, N is a random nucleotide (nucleic acid)
DNA: NNNNNNNCTAGTCATAGGGGGCGCGAACATACGCGGTTGGTGTGGTTGGCTGACAATACTCGTTTTTGGTGTCTCGGAT
modifications: DNA, backbone, methylation of C and the base at N not given here; circular: 5' and 3' ends joined to form a ring
IC50 (thrombin): 0.37 nM

B6: M4: Substitution variant of TBCA, SEQ ID NO:6, N is a random nucleotide (nucleic acid)
DNA: ATCTCGACTAGTCATAGGGGGCGCGAACATACGCGGTTGGTGTGGTTGGCTGACAATACTCGTNNNNNNNGTCTCGGAT
modifications: DNA, backbone, methylation of C and the base at N not given here; circular: 5' and 3' ends joined to form a ring
IC50 (thrombin): 0.1 nM

B7: D2: Deletion variant of TBCA, SEQ ID NO:9 (nucleic acid)
DNA: ATCTCGACTAGTCATAGGGGGCGCGAACATACGCGGTTGGTGTGGTTGGCTGACAATACTCGT
modifications: DNA, backbone and methylation of C not given here; further chemistry not fully specified
IC50 (thrombin): 0.09 nM

B8: D1: Deletion variant of TBCA, SEQ ID NO:8 (nucleic acid)
DNA: ATCTCGACTAGTCATAGGGGGCGCGAACATACGCGGTTGGTGTGGTTGGCTGACAATACTCGTGTCTCGGAT
modifications: DNA, backbone and methylation of C not given here; further chemistry not fully specified
IC50 (thrombin): 0.15 nM

— patent publication US12365904B2, “Thrombin binding circular aptamer and use thereof” (Hefei University of Technology, priority 2019, dated 2025)
